Test [1] concerns the target T1, Beta (B.1.351) RBD, biotinylated (SARS-CoV-2, Beta (B.1.351), N501Y | E484K | K417N, biotinylated (site not stated)).
T1 construct: also called Beta RBD; Beta-RBD
The experiment in a line: SPR. The following applies: both partners purified.

Test [2] deals with T2, Alpha (B.1.1.7) RBD, biotinylated (SARS-CoV-2, Alpha (B.1.1.7), N501Y, biotinylated (site not stated)).
T2 construct: also called Alpha RBD; RBD-Kent
The experiment in a line: SPR. The following applies: both partners purified.

B1: nanobody C1 (monovalent VHH, pOPINO construct) (VHH)
VHH: QVQLVESGGGLVQPGGSLRLSCAASGFTNDFYSIAWFRQAPGKEREGVSWLSVSDNTPTYVDSVKDRFTISRHNANNTVYLQMNMLKPEDTAIYYCAAGRFAGRDTWPSSYDYWGQGTQVTVSS
Broadly, the Kd is the constant that tells how readily two partners part at equilibrium. Higher therefore signals weaker binding. Turning to B1, binding in test [1] was put at a Kd of 0.648 nM. In addition, in test [2], the Kd turned out to be 0.725 nM and the T1/2 came out at 21 min.

B2: nanobody F2 (monovalent VHH, pOPINO construct) (VHH)
VHH: QVQLVESGGGLVQAGGSLRLACIASGRTFHSYVMAWFRQAPGKEREFVAAISWSSTPTYYGESVKGRFTISRDNAKNTVYLQMNRLKPEDTAVYFCAADRGESYYYTRPTEYEFWGQGTQVTVSS
With B2, the Kd in test [1] came out at 0.038 nM; in test [2], 0.047 nM. The T1/2 in test [1] was 52 min; in test [2] it was 51 min.

The record behind these values is article PMC8458290 (Nature Communications, 2021).
